# In the supplement of paper PMC9170038:
# Test system: K4 kissing-loop RNA reporter
# Test: apparent KD of K4 kissing-loop reporter; higher = weaker reporter binding
# Settings: Eterna round: R107; input ligand: none
# Protocol: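 RNA-MaP round R107: designed RNA switches with theophylline, tryptophan, arginine or FMN aptamers are transcribed on-chip within common flanks. They are titrated with a labelled K4 kissing-loop RNA reporter in RNA-MaP buffer (100 mM Tris pH 7.5, 80 mM KCl, 4 mM MgCl2), without ligand or with the indicated ligand. Median apparent KD per design.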
# 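Note: bound reporter read as fluorescence of individual clusters on recovered sequencing chips by microscopy, with normalized cluster intensities fitted with a binding model.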
row,Sequence,apparent KD of K4 kissing-loop reporter
1,AGAUCUGUAACAGAUACCAGAGGACGAUGAUCGGAUAGUGAUGUUAUCUAUCAGUCGUCGCUCCCUUGGCAGCUGUUACAGAUCA [Omei KL Theo B SS B v2],776 nM
2,UCGAAAUGCGACUCCUAGUUACACCGGGAAGGAGCGUGGAUAACCGCAGGUAGGUCGCCCGGAAGCCGGACCAGUGAUGUUGGUC [Exclusion Arginine A Gf 28],203 nM
3,AAAAUAACCCAGUGAUGUUGGUCUCCAGAUACCAGCGACGAAAGUCGCCCUUGGCAGCUGUGGACGUACAAAAUAAGUACGUCCU,776 nM
4,UACAUUGCAGUCUUCUUCGUCCUAGAUGACUAGGAUAUCAGGAAACUGAGAAGGAGUCACUGCAGUGAUGUUGCAGCUAGGACGA [KL-SSFMN-A9],110 nM
5,GCUAGUUUGGAAGGAUAUUCGUGCGAUCAAGUCAAACUUUACUGAGGGCGUUUUGGAGUGAUGUUCGAAGAAGGUCCCUUACUUA [theeternabot_exclusion_KL_FMN_B_28],999 nM
6,ACUGAAAGAUCUGAUACCAGACUUUUUGUAUUUAUUAAAACUAGUGAUGUUAGUUUAUCUGUCCCUUGGCAGCAGUUUCUACAGA [JR_Nu_ExcTheophyB_Sub023],144 nM
7,CAUACGCAUGGAGGAUAUGAGAUUACUCAUAUUAUUUAAUAUUCUCAGUGAUGUUGAGAUAUAAACUCAGAAGGCCAUGUGUAUG [Ex FMN B 1],143 nM
8,GCGGCGGGCCAAGGAUAUAUUUUGGAGUGAUGUUGUUCAUUUAUUUGAGCUAGUGAUGUUGGUCGAAUAGAAGGUGGCCCGCCGC [whbob_Ex_FMNB__2th219],56.9 nM
9,UGUAAGCGCGUAGAUACCAGCAGACGAGUGAUGUUCAAGAGAUUAAGGAAAAGAAAGUAAUGCCCUUGGCAGCUAAUCAUAAGCG [whbob_Ex_Theo_B_sa93],446 nM
10,GCCGUACGCAUGGAUACCAGUCUUAGAGUGAUGUUCUAAUCGAUUGCGCCUGGAUCAAUGGACCCUUGGCAGCCAUGCGUACGGC,120 nM
11,UUUCGGCUCUGAGGAUAUUCGGACAAAUAUAGUGAUGUUGUAUAAGGAGGAGGGUGUUGGCAGUGAGGAGAAGGCAGAGGAGGAU [#07 K4 FMN B Exclusion],397 nM
12,UUUUUGGAGAAUUAUAGUGAUGUUAUGAAGGAGGAUAUCUGGAGAUGGAGAAGGCCUAGUGGCUCAGGGAUGGAGGGUGGGUGGG [ExFMNA.Y],487 nM
13,CCAUUCUUUUACGAUACCAGUCUAAUAUAUUGAAUCAAAACCCUCGCCGAGUGAUGUUCGGACCCUUGGCAGCGUCUGCGAGAGG [xwxxtkmullin],602 nM
14,UGACUGGACUGAAGGAGCGCGAAACUCCUAGUGAUGUUAGGAUAACGAGACAAAGUCUCGACGCAGGUAGGUCGCAGUCUAGUCU,116 nM
15,AGAGUUAUGCGAGGAUAUGCGGUUAGUACUCAAAGAGUACUAACGCAGAGUGAUGUUCUGUGAAACGCAGAAGGUGCAUAACUCA [Omei KL FMN B SS B v3],280 nM
16,GGUAGCAUGAUGGAUACCAGUCCAAAUGGAGUGAUGUUCCAACAACAGGUUAGGCUGCUGGACCCUUGGCAGCCGUCAUGCUACC,160 nM
17,CGGACGGUAUCGGCCGCCACUCUGAAGACAGUGAUGUUGUCCGUGCAGUAUUUAGGAAAGCCGCGGAGGACCGGGAUGCGUCACU [theeternabot_sameState_KL_Trp_B_48],232 nM
18,AGAUGACACGGAGGAUAUCCUAAUAUGGGUGAUGUUAGCGAUGUUGAAGGUGUAGUGAUGUUAUGCGGAGAAGGCCGUGUUGUUU [BDazzled - #22 - Exc. FMN B],155 nM
19,AAACAUUGGUCGGAUACCAGCUGAUCGGAAACGAUCUUGCUGGAGUGAUGUUCCAAGUAAAGCCCUUGGCAGCCGACCGAUGAAA [MAT - Same State Theophlline B - Mod of Eli - D20],63.2 nM
20,GGUAGUGCUAGCGAUACCAGUCAUAUCGCUCUGGAGUGAUGUUCCGGAACGUGCGGAGAAGACCCUUGGCAGCGCUUGACGGUGU [Exclusion Theophylline B GF5],318 nM
21,UGAUACCAGACGGCCGCCACUAGAGCUAGCAAAGCUAGCAAGUGAUGUUUGAGGAGUGAUGUUCCUAGGACCGGGUCUGGUAUCU [TrypBX 2 #Palindromic #SwitchBubble #StaticStem],96.2 nM
22,GGAUAGGACACAGGAUAUGGGCUAGGCAAGAAUAACUUGUCUAGCAAAUCCAUGAGGAGUGAUGUUCCAGAAGGGUGUCCUAUCG [FmnBX 1 C11+G75],94.9 nM

# Same assay, conditions: Eterna round: R107; input ligand: theophylline 20 uM
row,Sequence,apparent KD of K4 kissing-loop reporter
1,UGUUUUUACUGAAGGAGCGGCAAUUGAUACGUAGAUAUAGUGAUGUUAUAUAAGAUAGAGAGCCAGGUAGGUCGCAGAGUGUAUC [ExArgB.aB],172 nM
2,UUUAUAAAGUCGGCCGCCACUGGAUUUAUGUUUGUUUCGUCUGGAUCAAAGUGAUGUUUUGAGUCCAGGACCGGGACAUUUGUUA [whbob_Ex_Tryp_B_w38],73.5 nM
3,UCGAACGAUGGAAGGAGCGCUCGUCAGUCCUGCGAGUGAUGUUCGUGGGUAAAUAGUCGCGAGCAGGUAGGUCGCCAUCUUGGGC [Reriat],136 nM
4,CCAUCCGAGUCGGCCGCCACUUUGAGUGAUGUUUGGAGUCUGAGUCAACAUAAAUACUUAGUUUAAAGGACCGGGACUUCGGAUG [theeternabot_exclusion_KL_Trp_B_7],1060 nM
5,UGGAGUUGACGAAAAGUCAACUCCUGAGAUACCAGUGACGAAAGUCACCCUUGGCAGCUCACUCCCAGUGAUGUUGGUUCAUAAG [#04 K4 Theophylline A Same State],496 nM
6,GGCACGGUGACGCGGCUGCCGUGCGCUUGGGAGGAUAUGUUUCGUGACAGAAGGCCCAGUGAUGUUGGGUCUGUUCAAAAGGACU [Edmatianri],121 nM
7,UGACUGGAUGGAAGGAGCGCUAAACUCCUAGUGAUGUUAGGGACACGAGGCAAAGCCUCGAAGCAGGUAGGUCGCCAUCUAGUCU [FiskerMod 22 - Jieux - Same State - Arginine B],182 nM
8,ACAGGAUCGAAAGAUCCUGAGCAGUCAAACCGAGGACCGGUACGGCCGCCACUCGGAGUGAUGUUCCGAAGACUGCAAAAUAAAA [#SwitchBubble 1],406 nM
9,AGUAAUGAGUGAUGUUCAAUUAGUAAGGAUACCAGUAAUUCAAAAUGCCCUUGGCAGCUUAACGCUACCAAUAGAUUAAUAAUGG [First try - Theophylline A],182 nM
10,UAUUCUUAUCUUAGUUGAUUUCUAAUUAAACGAGGACCGGUACGGCCGCCACUCGGUUAUGAGUGAUGUUCAUGGAAUUACAUAA [JR_SSTryptoA_Sub020],548 nM
11,AAGUGUGUGGCGGCCGCCACUAGAAUCCAGUGAUGUUGGAGAUAUCACGUAAGUGAUAUCCAACAUAGGACCGGGCCAUAUAGAA [Same State - Tryptophan B (Freestyle 12)],210 nM
12,AAUGGGUGAUAAGGAUAUCCACCUCACAAACCAAGAGUGAUGUUCGUUGGUCCAUGGACAAUAUGUGGAGAAGGUAUAGUGAUUA [theeternabot_exclusion_KL_FMN_B_48],747 nM
13,UGUGAGCUGUCGACAAAAGUCGACUAAAACGAGGAUAUGACGAAAGUCAGAAGGCGUCAAUAAUGGAGUGAUGUUCCUGCUCACU [FmnA 9 #SwitchBubble #K4Late],453 nM
14,GCCGCAAGGCUAGCAGCAAUAGGCGCUCGCUAGGAUAUCUGGAAACAGAGAAGGAGCUGGAGUGAUGUUUUACCUCCUUGUUAUU,814 nM
15,GCAUCCAUGGCAGGAUAUAGGUUCGUGGAGUGAUGUUCCAUAGCCCGAGUGAUGUUCGUUAUCCGCCUAGAAGGGCCAUGGAUGC [whbob_Ex_FMNB__2th213],219 nM
16,AGGUCACCACUACAGUGAUGUUGUAGGGAGCAGGAUAUGCAGAAAUGCAGAAGGGCUCGCUCCCGGUGACCGAAUGAAACAUUCA [Omei KL FMN A SS A v6],289 nM

row,Sequence,apparent KD of K4 kissing-loop reporter
1,GUUACGCAUGGAAGGAGCGCAUGCUCAACAAUAAGCUCAGUGAUGUUGAGCAAAAUUAAAAUGCAGGUAGGUCGCCAUGUGUAAC [Ex Arginine B K4 28],528 nM
2,GGUAGCAUGGCGGCCGCCACUGAGGCCCUAUACGAGUCCUAAACAACCUAGUGAUGUUAGGAGUCCAGGACCGGGCCAUGCUACC,262 nM
3,AAAAGCCUACAGGAUACCAGCCGAAUACUAAAAGGCUGGAGUGAUGUUCCAGCUUGCCGCGGCCCUUGGCAGCCUAGCUGGGUGA [Soatriti],341 nM
4,GCCAGAUAGACGGCCGCCACUUAUAAGUUUCAGUGAUGUUGGAACGGCAAAUGCCGAACACAAUAGAGGACCGGGUCAACUGGCG [Same State Tryptophan B GF 1],901 nM
5,CCAUCGCUAUUCGAUACCAGCUAAAUAUAAUAUAACCAGUGAUGUUGGUAUAUAAAUAUAAGCCCUUGGCAGCGAAUAGUGAUGG [Theophylline B K4 30],103 nM
6,AGAUCUGUAACAGAUACCAGAGGACGAUGAUCGGAUAGUGAUGUUAUCUAUCAGUCGUCGCUCCCUUGGCAGCUGUUACAGAUCA [Omei KL Theo B SS B v2],552 nM
7,UCGAAAUGCGACUCCUAGUUACACCGGGAAGGAGCGUGGAUAACCGCAGGUAGGUCGCCCGGAAGCCGGACCAGUGAUGUUGGUC [Exclusion Arginine A Gf 28],274 nM
8,AAAAUAACCCAGUGAUGUUGGUCUCCAGAUACCAGCGACGAAAGUCGCCCUUGGCAGCUGUGGACGUACAAAAUAAGUACGUCCU,485 nM
9,UACAUUGCAGUCUUCUUCGUCCUAGAUGACUAGGAUAUCAGGAAACUGAGAAGGAGUCACUGCAGUGAUGUUGCAGCUAGGACGA [KL-SSFMN-A9],121 nM
10,GCUAGUUUGGAAGGAUAUUCGUGCGAUCAAGUCAAACUUUACUGAGGGCGUUUUGGAGUGAUGUUCGAAGAAGGUCCCUUACUUA [theeternabot_exclusion_KL_FMN_B_28],664 nM
11,ACUGAAAGAUCUGAUACCAGACUUUUUGUAUUUAUUAAAACUAGUGAUGUUAGUUUAUCUGUCCCUUGGCAGCAGUUUCUACAGA [JR_Nu_ExcTheophyB_Sub023],134 nM
12,CAUACGCAUGGAGGAUAUGAGAUUACUCAUAUUAUUUAAUAUUCUCAGUGAUGUUGAGAUAUAAACUCAGAAGGCCAUGUGUAUG [Ex FMN B 1],166 nM
13,GCGGCGGGCCAAGGAUAUAUUUUGGAGUGAUGUUGUUCAUUUAUUUGAGCUAGUGAUGUUGGUCGAAUAGAAGGUGGCCCGCCGC [whbob_Ex_FMNB__2th219],35.9 nM
14,UGUAAGCGCGUAGAUACCAGCAGACGAGUGAUGUUCAAGAGAUUAAGGAAAAGAAAGUAAUGCCCUUGGCAGCUAAUCAUAAGCG [whbob_Ex_Theo_B_sa93],331 nM
15,GCCGUACGCAUGGAUACCAGUCUUAGAGUGAUGUUCUAAUCGAUUGCGCCUGGAUCAAUGGACCCUUGGCAGCCAUGCGUACGGC,125 nM
16,UUUCGGCUCUGAGGAUAUUCGGACAAAUAUAGUGAUGUUGUAUAAGGAGGAGGGUGUUGGCAGUGAGGAGAAGGCAGAGGAGGAU [#07 K4 FMN B Exclusion],358 nM
